{"source": "the supplement of paper PMC9170038", "system": "MS2 coat protein", "assay": "apparent KD of MS2 coat protein; higher = weaker reporter binding", "settings": "Eterna round: R107", "method": "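RNA-MaP round R107: designed RNA switches with theophylline, tryptophan, arginine or FMN aptamers are transcribed on-chip within common flanks. They are titrated with SNAP-549-labelled MS2 coat protein in RNA-MaP buffer (100 mM Tris pH 7.5, 80 mM KCl, 4 mM MgCl2), without ligand or with the indicated ligand. Median apparent KD per design.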", "key": {"[1]": {"settings": "input ligand: theophylline 20 uM"}, "[2]": {"settings": "input ligand: theophylline 2 mM"}, "[3]": {"settings": "input ligand: tryptophan 2.4 mM"}}, "data": [{"sequence": "ACGCCCAGGUAGGCUUAGUGGGAAAUGGAAGGAGCGCUGAUGCAAGCAGGUAGGUCGCCAACGAACAUGAGGAUCACCCAUGUAA [Same State - Arginine A (Freestyle 1)]", "values": [{"measurement": "apparent KD of MS2 coat protein", "setting": "input ligand: arginine 13.2 mM", "value": 0.014, "unit": "µM"}, {"measurement": "apparent KD of MS2 coat protein", "setting": "input ligand: none", "value": 0.0179, "unit": "µM"}, {"measurement": "apparent KD of MS2 coat protein", "setting": "[1]", "value": 0.0298, "unit": "µM"}, {"measurement": "apparent KD of MS2 coat protein", "setting": "[2]", "value": 0.0207, "unit": "µM"}, {"measurement": "apparent KD of MS2 coat protein", "setting": "[3]", "value": 0.0164, "unit": "µM"}]}, {"sequence": "ACGCGCUGGGCGGCCGCCACUCACCUGCCGUGGACAUUUCGAGGUCACAUGAGGAUCACCCAUGUGAGGACCGGGCCCUGUAGGC [theeternabot_exclusion_MS2_Trp_B_37]", "values": [{"measurement": "apparent KD of MS2 coat protein", "setting": "input ligand: arginine 13.2 mM", "value": 0.0123, "unit": "µM"}, {"measurement": "apparent KD of MS2 coat protein", "setting": "[1]", "value": 0.017, "unit": "µM"}, {"measurement": "apparent KD of MS2 coat protein", "setting": "[2]", "value": 0.0127, "unit": "µM"}]}, {"sequence": "ACGCUGAUUGAUUACAAUCAGCGAAAAGAUACCAGUGGGUAAUCCCACCCUUGGCAGCUUAAACAAGAGGAUCACCCUUGUGGUA [TheoAS 16 #MS2Right #BothOrNeither #AlternativeMS2]", "values": [{"measurement": "apparent KD of MS2 coat protein", "setting": "input ligand: arginine 13.2 mM", "value": 0.102, "unit": "µM"}, {"measurement": "apparent KD of MS2 coat protein", "setting": "input ligand: none", "value": 0.201, "unit": "µM"}, {"measurement": "apparent KD of MS2 coat protein", "setting": "[1]", "value": 0.37, "unit": "µM"}, {"measurement": "apparent KD of MS2 coat protein", "setting": "[2]", "value": 0.238, "unit": "µM"}, {"measurement": "apparent KD of MS2 coat protein", "setting": "[3]", "value": 0.521, "unit": "µM"}]}, {"sequence": "ACGCUGAUUGAUUACAAUCAGCGAAAAGAUACCAGUGGGUAAUCCCACCCUUGGCAGCUUAAACAUGAGCAUCAGCCAUGUGGUA [TheoAS 15 #MS2Right #BothOrNeither #AlternativeMS2]", "values": [{"measurement": "apparent KD of MS2 coat protein", "setting": "input ligand: arginine 13.2 mM", "value": 0.0779, "unit": "µM"}, {"measurement": "apparent KD of MS2 coat protein", "setting": "input ligand: none", "value": 0.119, "unit": "µM"}, {"measurement": "apparent KD of MS2 coat protein", "setting": "[1]", "value": 0.114, "unit": "µM"}, {"measurement": "apparent KD of MS2 coat protein", "setting": "[2]", "value": 0.0372, "unit": "µM"}, {"measurement": "apparent KD of MS2 coat protein", "setting": "[3]", "value": 0.142, "unit": "µM"}]}, {"sequence": "ACGGAUCGGAAACGAUCCGCGGCAAGGGUACGAGGACCGGUACGGCCGCCACUCGGCUAACAUGAGGAUCACCCAUGUCCGAAGA [ETA NP+V+V2 #8]", "values": [{"measurement": "apparent KD of MS2 coat protein", "setting": "input ligand: arginine 13.2 mM", "value": 0.0419, "unit": "µM"}, {"measurement": "apparent KD of MS2 coat protein", "setting": "input ligand: none", "value": 0.0607, "unit": "µM"}, {"measurement": "apparent KD of MS2 coat protein", "setting": "[1]", "value": 0.0597, "unit": "µM"}, {"measurement": "apparent KD of MS2 coat protein", "setting": "[2]", "value": 0.0722, "unit": "µM"}, {"measurement": "apparent KD of MS2 coat protein", "setting": "[3]", "value": 0.0722, "unit": "µM"}]}, {"sequence": "ACGGAUCGGAAACGAUCCGCGGCUAGGGUGCGAGGACCGGUACGGCCGCCACUCGGGUAACAUGAGGAUCACCCAUGUCCGAUUU [ETA NP+V+V2 #13 Same Structure]", "values": [{"measurement": "apparent KD of MS2 coat protein", "setting": "input ligand: arginine 13.2 mM", "value": 0.0364, "unit": "µM"}, {"measurement": "apparent KD of MS2 coat protein", "setting": "input ligand: none", "value": 0.0927, "unit": "µM"}, {"measurement": "apparent KD of MS2 coat protein", "setting": "[1]", "value": 0.079, "unit": "µM"}, {"measurement": "apparent KD of MS2 coat protein", "setting": "[2]", "value": 0.143, "unit": "µM"}, {"measurement": "apparent KD of MS2 coat protein", "setting": "[3]", "value": 0.198, "unit": "µM"}]}, {"sequence": "ACGUCAUGGAGAACGUGACGACUUAUCGAUACCAGCGAUUGAGAGCGCCCUUGGCAGCGAACAUGAGGAUCACCCAUGUCAAGGG [Same State - Theophylline A]", "values": [{"measurement": "apparent KD of MS2 coat protein", "setting": "input ligand: arginine 13.2 mM", "value": 0.0291, "unit": "µM"}, {"measurement": "apparent KD of MS2 coat protein", "setting": "[1]", "value": 0.0365, "unit": "µM"}, {"measurement": "apparent KD of MS2 coat protein", "setting": "[3]", "value": 0.0294, "unit": "µM"}]}, {"sequence": "ACGUGCAGCAGAAGGAGCGUCUUAAUUCUACAUGAGGAUCACCCAUGUUUACAUUGGAUAUGACAGGUAGGUCGCUGAAGUACGA [#05 Same State - Arginine B]", "values": [{"measurement": "apparent KD of MS2 coat protein", "setting": "input ligand: arginine 13.2 mM", "value": 0.0362, "unit": "µM"}, {"measurement": "apparent KD of MS2 coat protein", "setting": "input ligand: none", "value": 0.03, "unit": "µM"}, {"measurement": "apparent KD of MS2 coat protein", "setting": "[1]", "value": 0.0417, "unit": "µM"}, {"measurement": "apparent KD of MS2 coat protein", "setting": "[2]", "value": 0.0372, "unit": "µM"}, {"measurement": "apparent KD of MS2 coat protein", "setting": "[3]", "value": 0.018, "unit": "µM"}]}, {"sequence": "ACUUGUGAGUCGGCCGCCACUCACCGGUAGUGUCACUCGUUCACAAACAUGAGGAUCACCCAUGUGAGGACCGGGACAGUCGGGU [theeternabot_exclusion_MS2_Trp_B_28]", "values": [{"measurement": "apparent KD of MS2 coat protein", "setting": "input ligand: arginine 13.2 mM", "value": 0.0135, "unit": "µM"}, {"measurement": "apparent KD of MS2 coat protein", "setting": "[1]", "value": 0.0254, "unit": "µM"}, {"measurement": "apparent KD of MS2 coat protein", "setting": "[2]", "value": 0.0163, "unit": "µM"}]}, {"sequence": "AGAGGUAUACAUGGAAACAUGUAUAUUUCACGAGGACCGGUACGGCCGCCACUCGGUACCGGAAACACAUGAGGAUCACCCAUGU [Ex_TrypA - H1]", "values": [{"measurement": "apparent KD of MS2 coat protein", "setting": "input ligand: arginine 13.2 mM", "value": 0.017, "unit": "µM"}, {"measurement": "apparent KD of MS2 coat protein", "setting": "[1]", "value": 0.0232, "unit": "µM"}, {"measurement": "apparent KD of MS2 coat protein", "setting": "[2]", "value": 0.0243, "unit": "µM"}]}, {"sequence": "AGAGUCUAGUCGGCCGCCACUCAUGUCCAAUGGACAUGAGGAUCACCCAUGUACCAAAGGUACAUGAGGACCGGGACUGGACUCA [Omei Tryp B SS C v4]", "values": [{"measurement": "apparent KD of MS2 coat protein", "setting": "input ligand: arginine 13.2 mM", "value": 0.0272, "unit": "µM"}, {"measurement": "apparent KD of MS2 coat protein", "setting": "[1]", "value": 0.209, "unit": "µM"}, {"measurement": "apparent KD of MS2 coat protein", "setting": "[2]", "value": 0.0833, "unit": "µM"}]}, {"sequence": "AGAGUUAGACAAAAGUCUAGCUCACCAGAAGGAGCGUCCGAAAGGACAGGUAGGUCGCUGGUACAUGAGGAUCACCCAUGUUCCU [ArgAS 8 #OpenEnded]", "values": [{"measurement": "apparent KD of MS2 coat protein", "setting": "input ligand: arginine 13.2 mM", "value": 0.0435, "unit": "µM"}, {"measurement": "apparent KD of MS2 coat protein", "setting": "input ligand: none", "value": 0.124, "unit": "µM"}, {"measurement": "apparent KD of MS2 coat protein", "setting": "[1]", "value": 0.116, "unit": "µM"}, {"measurement": "apparent KD of MS2 coat protein", "setting": "[2]", "value": 0.145, "unit": "µM"}, {"measurement": "apparent KD of MS2 coat protein", "setting": "[3]", "value": 0.082, "unit": "µM"}]}, {"sequence": "AGAUGUAGCGGAAGGAGCGACAAGAGGAUCACCCUUGUCUCCCGUUGUGGGAGUUCCUUAGGUCAGGUAGGUCGCCGUUACGUCA [Omei Arg B SS B v4]", "values": [{"measurement": "apparent KD of MS2 coat protein", "setting": "input ligand: arginine 13.2 mM", "value": 0.0227, "unit": "µM"}, {"measurement": "apparent KD of MS2 coat protein", "setting": "input ligand: none", "value": 0.0229, "unit": "µM"}, {"measurement": "apparent KD of MS2 coat protein", "setting": "[1]", "value": 0.0384, "unit": "µM"}, {"measurement": "apparent KD of MS2 coat protein", "setting": "[2]", "value": 0.0286, "unit": "µM"}, {"measurement": "apparent KD of MS2 coat protein", "setting": "[3]", "value": 0.025, "unit": "µM"}]}, {"sequence": "AGAUUCGACACGGCCGCCACUCGUGGUGGAUUACCUAGUGUCGAACAUGAGGAUCACCCAUGUACGAGGACCGGGUGUUGAGUCU [XTryp B #18]", "values": [{"measurement": "apparent KD of MS2 coat protein", "setting": "input ligand: arginine 13.2 mM", "value": 0.0405, "unit": "µM"}, {"measurement": "apparent KD of MS2 coat protein", "setting": "[1]", "value": 0.0856, "unit": "µM"}, {"measurement": "apparent KD of MS2 coat protein", "setting": "[2]", "value": 0.086, "unit": "µM"}]}, {"sequence": "AGCAACAAGUCGGCCGCCACUCUUUUUACAUGAGGAUCACCCAUGUUUAUAUCAUGGUCUUAAUAGAGGACCGGGACAGUUGCAU [JR_ExcTryptoB_Sub006]", "values": [{"measurement": "apparent KD of MS2 coat protein", "setting": "input ligand: arginine 13.2 mM", "value": 0.0286, "unit": "µM"}, {"measurement": "apparent KD of MS2 coat protein", "setting": "[1]", "value": 0.0537, "unit": "µM"}, {"measurement": "apparent KD of MS2 coat protein", "setting": "[2]", "value": 0.0469, "unit": "µM"}]}, {"sequence": "AGCACAUGAGGAUCACCCAUGUGUCGGUACCGAGGACCGGUACGGCCGCCACUCGCAGGACAUGAGGAUCACCCAUGUGCCGCCG [SSTA DOUBLE!!! :-D #8]", "values": [{"measurement": "apparent KD of MS2 coat protein", "setting": "input ligand: arginine 13.2 mM", "value": 0.014, "unit": "µM"}, {"measurement": "apparent KD of MS2 coat protein", "setting": "[1]", "value": 0.0361, "unit": "µM"}, {"measurement": "apparent KD of MS2 coat protein", "setting": "[2]", "value": 0.0359, "unit": "µM"}]}, {"sequence": "AGCAUGUUAUCAGAUACCAGACAUCUUUUUUUACGUAUUACAUGAGGAUCACCCAUGUUGGUCCCUUGGCAGCUGAAAUAUUUCA [JR_Nu_SSTheophyB_Sub022]", "values": [{"measurement": "apparent KD of MS2 coat protein", "setting": "input ligand: arginine 13.2 mM", "value": 0.167, "unit": "µM"}, {"measurement": "apparent KD of MS2 coat protein", "setting": "[1]", "value": 0.269, "unit": "µM"}, {"measurement": "apparent KD of MS2 coat protein", "setting": "[3]", "value": 0.219, "unit": "µM"}]}]}
